Reference: article PMC6641210 (2019)
Several values for one entry are separate records, joined by “and”; a condition that tells them apart may be missing. Identical values can stand only once. Like-named read-outs stand apart in the source and are kept apart here. One block for each molecule: values may come before it.

Assays:
[1] = molecular target: ADCC-enhanced human IgG1 25G1 with S239D/I332E (human); test: SPR
[2] = molecular target: ADCC-enhanced human IgG1 25G1 with S239D/I332E (human); test: SPR; Biacore X100, 25°C, HBS-EP+ (0.01 M HEPES pH 7.4, 0.15 M NaCl, 3 mM EDTA, 0.05% P20); antibody (5.3 nM) captured by its kappa light chain on a Protein L Sensor Chip, FcγRIIIA ECD injected 30 s at 30 µl/min; five-point titration in triplicate; kinetic fit, 1:1 Langmuir binding model
[3] = molecular target: ADCC-enhanced human IgG1 25G1 with S239D/I332E (human); test: SPR; Biacore X100, 25°C, HBS-EP+; antibody captured on a Protein L Sensor Chip, five-point titration of FcγRIIIA ECD in triplicate; steady-state affinity model
[4] = molecular target: rabbit chimera of human IgG1 25G1 (human 25G1 variable regions on rabbit IgG heavy chain and rabbit kappa K2 light chain constant regions) (rabbit (Oryctolagus cuniculus)); test: SPR; antibody (5.3 nM) captured by its kappa light chain on a Protein L sensor chip, FcγRIIIA ECD injected as analyte; Biacore X100, 25°C, HBS-EP+ (0.01 M HEPES pH 7.4, 0.15 M NaCl, 3 mM EDTA, 0.05% P20); five-point titration in triplicate, 1:1 Langmuir binding model (kinetic)
[5] = molecular target: chimeric rabbit IgG: variable regions of human 25G1 on rabbit IgG heavy and rabbit kappa (K2) light chain constant regions (human | rabbit (Oryctolagus cuniculus)); test: SPR; Biacore X100, 25°C, HBS-EP+ (0.01 M HEPES pH 7.4, 0.15 M NaCl, 3 mM EDTA, 0.05% P20); antibody (5.3 nM) captured by its kappa light chain on a Protein L Sensor Chip, FcγRIIIA ECD injected 30 s at 30 µl/min; five-point titration in triplicate; kinetic fit, 1:1 Langmuir binding model
[6] = molecular target: chimeric rabbit IgG: variable regions of human 25G1 on rabbit IgG heavy and rabbit kappa (K2) light chain constant regions (human | rabbit (Oryctolagus cuniculus)); test: SPR; Biacore X100, 25°C, HBS-EP+; antibody captured on a Protein L Sensor Chip, five-point titration of FcγRIIIA ECD in triplicate; steady-state affinity model
[7] = molecular target: T1, pig FcγRIIIA extracellular domain fragment (pig, UniProt Q28942 20-209); test: SPR
T1 chain: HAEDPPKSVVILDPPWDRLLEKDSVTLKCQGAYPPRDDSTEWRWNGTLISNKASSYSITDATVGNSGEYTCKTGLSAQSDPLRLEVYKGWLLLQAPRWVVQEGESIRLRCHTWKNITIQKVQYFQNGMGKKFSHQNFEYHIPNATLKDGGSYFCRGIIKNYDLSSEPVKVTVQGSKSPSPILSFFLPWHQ

[8] = molecular target: T2, rabbit FcγRIIIA extracellular domain fragment (rabbit (Oryctolagus cuniculus)); test: SPR
T2 chain: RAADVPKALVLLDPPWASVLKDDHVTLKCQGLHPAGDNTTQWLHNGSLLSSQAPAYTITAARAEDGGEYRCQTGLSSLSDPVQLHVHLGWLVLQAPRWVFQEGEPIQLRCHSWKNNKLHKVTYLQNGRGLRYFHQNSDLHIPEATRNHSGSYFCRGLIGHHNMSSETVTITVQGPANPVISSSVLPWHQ

[9] = molecular target: biotinylated rabbit IgG (Jackson 011-060-003) (rabbit); test: SPR; biotinylated rabbit IgG immobilised on a streptavidin Sensor Chip SA, titration of rabbit FcγRIIIA as analyte; steady-state affinity analysis, average of a triplicate
[10] = molecular target: ADCC-enhanced human IgG1 (25G1) with the S239D/I332E mutations (human); test: SPR; antibody (5.3 nM) captured by its kappa light chain on a Protein L sensor chip, FcγRIIIA ECD injected as analyte; Biacore X100, 25°C, HBS-EP+ (0.01 M HEPES pH 7.4, 0.15 M NaCl, 3 mM EDTA, 0.05% P20); five-point titration in triplicate, 1:1 Langmuir binding model (kinetic)
[11] = molecular target: human IgG1 antibody with a kappa light chain (human anti-Tissue Factor antibody 25G1) (human); test: as above
[12] = molecular target: rabbit chimera of human IgG1 25G1 (human 25G1 variable regions on rabbit IgG heavy chain and rabbit kappa K2 light chain constant regions) (rabbit (Oryctolagus cuniculus)); test: as above; remark: listed apart in the source
[13] = molecular target: T3, human IgG1 anti-Tissue Factor antibody 25G1 with a kappa light chain (human); test: SPR; Biacore X100, 25°C, HBS-EP+ (0.01 M HEPES pH 7.4, 0.15 M NaCl, 3 mM EDTA, 0.05% P20); antibody (5.3 nM) captured by its kappa light chain on a Protein L Sensor Chip, FcγRIIIA ECD injected 30 s at 30 µl/min; five-point titration in triplicate; kinetic fit, 1:1 Langmuir binding model
[14] = molecular target: T4, chimeric rabbit IgG: variable regions of human 25G1 on rabbit IgG heavy and rabbit kappa (K2) light chain constant regions (human | rabbit (Oryctolagus cuniculus)); test: as above; remark: listed apart in the source
[15] = molecular target: T3, human IgG1 anti-Tissue Factor antibody …; test: SPR; Biacore X100, 25°C, HBS-EP+; antibody captured on a Protein L Sensor Chip, five-point titration of FcγRIIIA ECD in triplicate; steady-state affinity model
[16] = molecular target: T4, chimeric rabbit IgG: variable regions …; test: as above; remark: listed apart in the source
[17] = molecular target: ADCC-enhanced human IgG1 25G1 with S239D/I332E (human); test: SPR; remark: listed apart in the source
[18] = molecular target: chimeric pig IgG1: variable regions of human 25G1 on pig IgG1 heavy and pig kappa light chain constant regions (human | pig (Sus scrofa)); test: SPR; Biacore X100, 25°C, HBS-EP+ (0.01 M HEPES pH 7.4, 0.15 M NaCl, 3 mM EDTA, 0.05% P20); antibody (5.3 nM) captured by its kappa light chain on a Protein L Sensor Chip, FcγRIIIA ECD injected 30 s at 30 µl/min; five-point titration in triplicate; kinetic fit, 1:1 Langmuir binding model
[19] = molecular target: human IgG1 anti-Tissue Factor antibody 25G1 with a kappa light chain (human); test: as above; remark: listed apart in the source
[20] = molecular target: chimeric pig IgG1: variable regions of human 25G1 on pig IgG1 heavy and pig kappa light chain constant regions (human | pig (Sus scrofa)); test: SPR; Biacore X100, 25°C, HBS-EP+; antibody captured on a Protein L Sensor Chip, five-point titration of FcγRIIIA ECD in triplicate; steady-state affinity model
[21] = molecular target: human IgG1 anti-Tissue Factor antibody 25G1 with a kappa light chain (human); test: as above; remark: listed apart in the source
[22] = molecular target: ADCC-enhanced human IgG1 (25G1) with the S239D/I332E mutations (human); test: SPR; antibody (5.3 nM) captured by its kappa light chain on a Protein L sensor chip, FcγRIIIA ECD injected as analyte; Biacore X100, 25°C, HBS-EP+ (0.01 M HEPES pH 7.4, 0.15 M NaCl, 3 mM EDTA, 0.05% P20); five-point titration in triplicate, 1:1 Langmuir binding model (kinetic); remark: listed apart in the source
[23] = molecular target: pig chimera of human IgG1 25G1 (human 25G1 variable regions on pig IgG1 heavy chain and pig kappa light chain constant regions) (pig (Sus scrofa)); test: as above
[24] = molecular target: human IgG1 antibody with a kappa light chain (human anti-Tissue Factor antibody 25G1) (human); test: as above; remark: listed apart in the source

Kd [1]: 1.18 nM
koff [1]: 0.01 s⁻¹
kon [1]: 1.01e+07 M⁻¹ s⁻¹
Molecule: human FcγRIIIA-V158 (high affinity allele) extracellular domain fragment (receptor)

Kd [7]: 8060 nM and 14700 nM
Kd [8]: 2170 nM and 2710 nM
B1: human IgG1 antibody with a kappa light chain (human anti-Tissue Factor antibody 25G1) (antibody)
chain 1: QVQLVQSGAEVKKPGASVKVSCKASGYTFRSYGISWVRQAPGQGLEWMGWVAPYSGNTNYAQKLQGRVTMTTDTSTSTAYMELRSLRSDDTAVYYCARDAGTYSPYGYGMDVWGQGTTVTVSS
chain 2: DIQMTQSPSTLSASVGDRVTITCRASHSIDSWLAWYQQKPGKAPKLLIYKASYLESGVPSRFSGSGSGTEFTLTISSLQPDDFATYYCQLFQSLPPFTFGGGTKVEIK

More lines, now with the values behind:

Molecule: rabbit FcγRIIIA extracellular domain fragment (receptor)
Kd [2]: 148 nM
koff [2]: 0.27 s⁻¹
kon [2]: 1.8e+06 M⁻¹ s⁻¹
Kd [3]: 133 nM

Molecule: human FcγRIIIA extracellular domain fragment, low affinity F158 variant (from UniProt P08637 17-208) (receptor)
difference of kinetic KD between hIgG1 and rIgG [4]: 24%

Molecule: human FcγRIIIA-F158 (low affinity allele) extracellular domain fragment (receptor)
Kd [5]: 773 nM
koff [5]: 0.14 s⁻¹
kon [5]: 186000 M⁻¹ s⁻¹
Kd [2]: 4.6 nM
koff [2]: 0.05 s⁻¹
kon [2]: 1.16e+07 M⁻¹ s⁻¹
Kd [6]: 792 nM

B2: rabbit FcγRIIIA extracellular domain fragment (receptor)
chain: T2 chain
modifications: not checked
Kd [9]: 1320 nM
fold improvement of KD relative to hIgG1 [10]: > 10 fold
fold reduction of affinity relative to hFcγRIIIA [11]: 4 fold
Kd [12]: 2450 nM
difference of kinetic KD between hIgG1 and rIgG [12]: 10%
Kd [13]: 2710 nM
koff [13]: 0.33 s⁻¹
kon [13]: 122000 M⁻¹ s⁻¹
koff [14]: 0.34 s⁻¹
kon [14]: 140000 M⁻¹ s⁻¹
Kd [15]: 2170 nM
Kd [16]: 1990 nM

B3: pig FcγRIIIA extracellular domain fragment (receptor)
chain: T1 chain
Kd [17]: 638 nM
Kd [5]: 10900 nM
koff [5]: 0.08 s⁻¹
kon [5]: 7110 M⁻¹ s⁻¹
koff [18]: 0.28 s⁻¹
kon [18]: 59700 M⁻¹ s⁻¹
Kd [19]: 8060 nM
koff [19]: 0.05 s⁻¹
kon [19]: 5920 M⁻¹ s⁻¹
Kd [2]: 726 nM
koff [2]: 0.35 s⁻¹
kon [2]: 480000 M⁻¹ s⁻¹
Kd [6]: 13200 nM
Kd [20]: 3970 nM
Kd [21]: 14700 nM
fold deterioration of kd relative to hIgG1 [22]: 7 fold
fold improvement of KD relative to hIgG1 [22]: > 10 fold
Kd [23]: 4730 nM
difference of kinetic KD between hIgG1 and rIgG [4]: 30%
fold reduction of affinity relative to hFcγRIIIA [24]: 13 fold
